In article PMC10960814:

Legend:
[1] = target: full-length human insulin receptor, B isoform (hIR-B), with a kinase-dead mutation, construct for structural studies (human); assay: cryo-EM structure; purified hIR-A or hIR-B dimer fraction (20 mM HEPES-Na pH 7.5, 400 mM NaCl, 0.03% DDM) with refolded IGF2 added at a 2:8 (m/m) ratio, 2 h; saturated IGF2
[2] = target: full-length human IR-B, Myc-tagged (pCS2-IR-B-Myc) (human) (UniProt P06213); assay: competition-binding assay (fluorescent insulin on bead-bound receptor); IR-A-Myc or IR-B-Myc held on anti-c-Myc magnetic beads; 1 nM Alexa Fluor labeled human insulin and the indicated amount of homemade IGF2, 4 °C, 14 h; 20 mM Hepes pH 7.4, 200 mM NaCl, 0.03% DDM, 0.003% CHS, 100 nM BSA; fluorescence of the eluate
[3] = target: full-length human IR-A, Myc-tagged (pCS2-IR-A-Myc) (human) (UniProt P06213); assay: as above

| Substance | stoichiometry N (IGF2 per IR dimer (class 1, symmetric)) [1] | stoichiometry N (IGF2 per IR dimer (class 2, asymmetric)) [1] | stoichiometry N ([1]; scale: IGF2 per IR dimer) | fold of binding affinity against IGF2 WT [2] | fold of binding affinity against IGF2 WT [3] |
| --- | --- | --- | --- | --- | --- |
| insulin-like growth factor 2 (IGF2), wild type, homemade (from UniProt P01344 25-91) (ligand) | 4 | 3 | 2 | – | – |
| IGF2 R30A mutant (ligand) | – | – | – | 3 fold | 3 fold |
